# Data as given in patent publication US5773001 (American Cyanamid Company, dated 1998).
# Like-named read-outs stand apart in the source and are kept apart here.
# B1: Conjugate of 4-formyl-3-methoxyphenoxyacetic acid (3) condensed with Calicheamicin N-acetyl gamma dimethyl hydrazide and h-P67.6 (antibody, V domains shown)
# VH: EVQLVQSGAEVKKPGSSVKVSCKASGYTITDSNIHWVRQAPGQSLEWIGYIYPYNGGTDYNQKFKNRATLTVDNPTNTAYMELSSLRSEDTDFYYCVNGNPWLAYWGQGTLVTVSS
# VL: DIQLTQSPSTLSASVGDRVTITCRASESLDNYGIRFLTWFQQKPGKAPKLLMYAASNQGSGVPSRFSGSGSGTEFTLTISSLQPDDFATYYCQQTKEVPWSFGQGTKVEVKR
# modifications: drug-linker amide on lysine side chains, sites not stated; drug-linker amide on lysine side chains, sites not stated
# B2: Conjugate of 4-(4-acetylphenoxy)butanoic acid (7) condensed with Calicheamicin N-acetyl gamma dimethyl hydrazide and h-P67.6 (antibody, V domains shown)
# VH: B1 VH
# VL: B1 VL
# modifications: drug-linker amide on lysine side chains, sites not stated; drug-linker amide on lysine side chains, sites not stated
# B3: Conjugate of 4-(2-oxoethoxy)benzenepropanoic acid (5) condensed with Calicheamicin N-acetyl gamma dimethyl hydrazide and h-P67.6 (antibody, V domains shown)
# VH: B1 VH
# VL: B1 VL
# modifications: drug-linker amide on lysine side chains, sites not stated; drug-linker amide on lysine side chains, sites not stated
# B4: Conjugate of 4-(2-acetyl-1-naphthalenyl)oxy! butanoic acid (20) condensed with Calicheamicin N-acetyl gamma dimethyl hydrazide and h-P67.6 (antibody, V domains shown)
# VH: B1 VH
# VL: B1 VL
# modifications: drug-linker amide on lysine side chains, sites not stated; drug-linker amide on lysine side chains, sites not stated
# B5: Conjugate of 4-(4-formylphenoxy)butanoic acid (9) condensed with Calicheamicin N-acetyl gamma dimethyl hydrazide and h-P67.6 (antibody, V domains shown)
# VH: B1 VH
# VL: B1 VL
# modifications: drug-linker amide on lysine side chains, sites not stated; drug-linker amide on lysine side chains, sites not stated
# B6: Conjugate of 4-formylphenoxyacetic acid (1) condensed with Calicheamicin N-acetyl gamma dimethyl hydrazide and h-P67.6 (antibody, V domains shown)
# VH: B1 VH
# VL: B1 VL
# modifications: drug-linker amide on lysine side chains, sites not stated; drug-linker amide on lysine side chains, sites not stated
# B7: Conjugate of 4-formylbenzoic acid (2) condensed with Calicheamicin N-acetyl gamma dimethyl hydrazide and h-P67.6 (antibody, V domains shown)
# VH: B1 VH
# VL: B1 VL
# modifications: drug-linker amide on lysine side chains, sites not stated; drug-linker amide on lysine side chains, sites not stated
# B8: Conjugate of 3-(2-oxoethoxy)benzoic acid (6) condensed with Calicheamicin N-acetyl gamma dimethyl hydrazide and h-P67.6 (antibody, V domains shown)
# VH: B1 VH
# VL: B1 VL
# modifications: drug-linker amide on lysine side chains, sites not stated; drug-linker amide on lysine side chains, sites not stated
# B9: Conjugate of 4-(4-acetylphenoxy)butanoic acid (7) condensed with calicheamicin gamma dimethyl hydrazide and h-P67.6 (antibody, V domains shown)
# VH: B1 VH
# VL: B1 VL
# modifications: drug-linker amide on lysine side chains, sites not stated; drug-linker amide on lysine side chains, sites not stated
# B10: Conjugate of 4-acetylbenzenebutanoic acid (19) condensed with Calicheamicin N-acetyl gamma dimethyl hydrazide and h-P67.6 (antibody, V domains shown)
# VH: B1 VH
# VL: B1 VL
# modifications: drug-linker amide on lysine side chains, sites not stated; drug-linker amide on lysine side chains, sites not stated
# B11: Conjugate of 4-formyl-3-methoxyphenoxyacetic acid (3) condensed with Calicheamicin N-acetyl gamma dimethyl hydrazide and m-CT-M-01 (antibody, V domains shown)
# VH: QIQLQQSGPELVKPGASVKISCKASGYTFTDYYINWMKQKPGQGLEWIGWIDPGSGNTKYNEKFKGKATLTVDTSSSTAYMQLSSLTSEDTAVYFCAREKTTYYYAMDYWGQGTSVTVSA
# VL: DIVMTQAAPSVPVTPGESLSISCRSSKSLLHSNGDTFLYWFLQRPGQSPQLLIYRMSNLASGVPDRFSGSGSGTAFTLRVSRVEAEDVGVYYCMQHLEYPFTFGAGTKLELKR
# modifications: drug-linker amide on lysine side chains, sites not stated; drug-linker amide on lysine side chains, sites not stated
# Experiments:
# CD33 antigen (human) [1] = molecular target: CD33 antigen (human) (UniProt P20138)
# CD33 antigen (human) [2] = molecular target: CD33 antigen (human) (UniProt P20138); experiment: competition with 125I-labelled native antibody on HEL 92.1.7 cells; IC50 (reference) / IC50 (sample)
# CD33 antigen (human) [3] = molecular target: CD33 antigen (human) (UniProt P20138); remark: listed apart in the source
# CD33 antigen (human) [4] = molecular target: CD33 antigen (human) (UniProt P20138); remark: listed apart in the source
# CD33 antigen (human) [5] = molecular target: CD33 antigen (human) (UniProt P20138); remark: listed apart in the source
# CD33 antigen (human) [6] = molecular target: CD33 antigen (human) (UniProt P20138); remark: listed apart in the source
# CD33 antigen (human) [7] = molecular target: CD33 antigen (human) (UniProt P20138); remark: listed apart in the source
# [8] = molecular target: polyepithelial mucin (PEM) antigen on cells (human) (UniProt P15941)
# CD33 antigen (human) [9] = molecular target: CD33 antigen (human) (UniProt P20138); remark: listed apart in the source
# [10] = molecular target: IL-2 receptor that is found on activated and functionally mature T cells, including abnormally activated leukemia cells (Homo sapiens (Human)) (UniProt P01589)
# CD33 antigen (human) [11] = molecular target: CD33 antigen (human) (UniProt P20138); experiment: competition with 125I-labelled native antibody on HEL 92.1.7 cells; IC50 (reference) / IC50 (sample); remark: listed apart in the source
# CD33 antigen (human) [12] = molecular target: CD33 antigen (human) (UniProt P20138); remark: listed apart in the source
# CD33 antigen (human) [13] = molecular target: CD33 antigen (human) (UniProt P20138); remark: listed apart in the source
# CD33 antigen (human) [14] = molecular target: CD33 antigen (human) (UniProt P20138); remark: listed apart in the source
# CD33 antigen (human) [15] = molecular target: CD33 antigen (human) (UniProt P20138); remark: listed apart in the source
# CD33 antigen (human) [16] = molecular target: CD33 antigen (human) (UniProt P20138); remark: listed apart in the source
# CD33 antigen (human) [17] = molecular target: CD33 antigen (human) (UniProt P20138); remark: listed apart in the source
# CD33 antigen (human) [18] = molecular target: CD33 antigen (human) (UniProt P20138); remark: listed apart in the source
# CD33 antigen (human) [19] = molecular target: CD33 antigen (human) (UniProt P20138); remark: listed apart in the source
# CD33 antigen (human) [20] = molecular target: CD33 antigen (human) (UniProt P20138); remark: listed apart in the source
# CD33 antigen (human) [21] = molecular target: CD33 antigen (human) (UniProt P20138); remark: listed apart in the source
# [22] = molecular target: polyepithelial mucin (PEM) antigen on cells (human) (UniProt P15941); experiment: competition with 125I-labelled native antibody on A2780DDP cells; IC50 (reference) / IC50 (sample)
# Target sequence in this assay (P15941 24-1255): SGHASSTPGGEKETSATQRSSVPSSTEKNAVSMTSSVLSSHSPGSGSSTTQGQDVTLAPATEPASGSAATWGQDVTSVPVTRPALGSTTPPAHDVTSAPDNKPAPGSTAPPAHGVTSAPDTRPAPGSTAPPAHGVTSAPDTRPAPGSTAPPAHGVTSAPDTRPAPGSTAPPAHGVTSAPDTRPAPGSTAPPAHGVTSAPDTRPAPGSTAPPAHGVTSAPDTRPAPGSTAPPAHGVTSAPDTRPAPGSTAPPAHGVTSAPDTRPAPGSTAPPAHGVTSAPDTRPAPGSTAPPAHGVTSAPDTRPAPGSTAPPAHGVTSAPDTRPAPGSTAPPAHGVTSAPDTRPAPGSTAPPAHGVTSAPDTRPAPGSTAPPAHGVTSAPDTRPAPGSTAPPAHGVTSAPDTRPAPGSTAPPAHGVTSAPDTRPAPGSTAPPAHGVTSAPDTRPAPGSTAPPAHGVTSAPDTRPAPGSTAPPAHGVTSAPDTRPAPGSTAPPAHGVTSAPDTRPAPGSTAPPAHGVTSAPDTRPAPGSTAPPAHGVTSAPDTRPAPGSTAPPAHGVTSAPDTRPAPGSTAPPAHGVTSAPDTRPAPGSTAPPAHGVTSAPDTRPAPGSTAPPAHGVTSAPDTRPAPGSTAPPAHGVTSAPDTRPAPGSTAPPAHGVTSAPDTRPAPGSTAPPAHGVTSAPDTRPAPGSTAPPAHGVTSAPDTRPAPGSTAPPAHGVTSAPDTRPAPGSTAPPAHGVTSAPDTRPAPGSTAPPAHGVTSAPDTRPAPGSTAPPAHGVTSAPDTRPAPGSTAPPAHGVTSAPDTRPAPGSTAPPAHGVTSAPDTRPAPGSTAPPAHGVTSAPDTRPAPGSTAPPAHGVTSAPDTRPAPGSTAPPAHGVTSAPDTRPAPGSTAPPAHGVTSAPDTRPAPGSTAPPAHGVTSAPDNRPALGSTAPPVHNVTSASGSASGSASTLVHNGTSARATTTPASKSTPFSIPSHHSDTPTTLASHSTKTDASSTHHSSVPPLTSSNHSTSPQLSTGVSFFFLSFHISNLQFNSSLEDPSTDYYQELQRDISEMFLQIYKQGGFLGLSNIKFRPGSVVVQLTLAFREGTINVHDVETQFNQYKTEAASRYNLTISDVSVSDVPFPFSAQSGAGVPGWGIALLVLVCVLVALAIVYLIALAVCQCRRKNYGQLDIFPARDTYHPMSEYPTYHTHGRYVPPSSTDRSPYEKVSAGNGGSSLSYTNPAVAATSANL
# [23] = molecular target: polyepithelial mucin (PEM) antigen on cells (human) (UniProt P15941); remark: listed apart in the source
# Target sequence in this assay (P15941 24-1255): as above
molecule,measurement,setting,value
Conjugate of 6-formyl-2-naphthoic acid (4) condensed with Calicheamicin N-acetyl gamma dimethyl hydrazide and m-P67.6 (antibody),In vitro IC50 (3H-thymidine incorporation),CD33 antigen (human) [1],0.047 ng/mL
same,Rel. Affinity,CD33 antigen (human) [2],0.73
Conjugate of 4-(4-acetylphenoxy)butanoic acid (7) condensed with Calicheamicin N-acetyl gamma dimethyl hydrazide and m-P67.6 (antibody),Rel. Affinity,CD33 antigen (human) [2],0.96
same,Ex vivo inhibition of colony formation,CD33 antigen (human) [3],98 % inhibition
same,In vitro IC50 (3H-thymidine incorporation),CD33 antigen (human) [3],0.017 ng/mL
Conjugate of 4-formyl-3-methoxyphenoxyacetic acid (3) condensed with Calicheamicin N-acetyl gamma dimethyl hydrazide and m-P67.6 (antibody),Rel. Affinity,CD33 antigen (human) [2],0.76
same,Ex vivo inhibition of colony formation,CD33 antigen (human) [4],90 % inhibition
same,In vitro IC50 (3H-thymidine incorporation),CD33 antigen (human) [4],0.12 ng/mL
Conjugate of 4-formylphenoxyacetic acid (1) condensed with Calicheamicin N-acetyl gamma dimethyl hydrazide and m-P67.6 (antibody),Rel. Affinity,CD33 antigen (human) [2],0.77
same,Ex vivo inhibition of colony formation,CD33 antigen (human) [5],90 % inhibition
same,In vitro IC50 (3H-thymidine incorporation),CD33 antigen (human) [5],0.068 ng/mL
Conjugate of 4-acetylbenzenebutanoic acid (19) condensed with Calicheamicin N-acetyl gamma dimethyl hydrazide and m-P67.6 (antibody),Rel. Affinity,CD33 antigen (human) [2],0.42
same,Ex vivo inhibition of colony formation,CD33 antigen (human) [6],99 % inhibition
same,In vitro IC50 (3H-thymidine incorporation),CD33 antigen (human) [6],0.0082 ng/mL
Conjugate of 4-(2-oxoethoxy)benzenepropanoic acid (5) condensed with Calicheamicin N-acetyl gamma dimethyl hydrazide and m-P67.6 (antibody),Rel. Affinity,CD33 antigen (human) [2],1.11
same,Ex vivo inhibition of colony formation,CD33 antigen (human) [7],71 % inhibition
same,In vitro IC50 (3H-thymidine incorporation),CD33 antigen (human) [7],0.45 ng/mL
Conjugate of 4-(4-acetylphenoxy)butanoic acid (7) condensed with Calicheamicin N-acetyl gamma dimethyl hydrazide and h-CT-M-01 (antibody),In vitro IC50 (3H-thymidine incorporation),[8],0.048 ng/mL
Conjugate of 3-(2-oxoethoxy)benzoic acid (6) condensed with Calicheamicin N-acetyl gamma dimethyl hydrazide and m-P67.6 (antibody),Rel. Affinity,CD33 antigen (human) [2],1.91
same,In vitro IC50 (3H-thymidine incorporation),CD33 antigen (human) [9],0.32 ng/mL
Conjugate of 4-(4-acetylphenoxy)butanoic acid (7) condensed with calicheamicin N-acetyl gamma dimethyl hydrazide and anti-Tac (antibody),Ex vivo IC50 (inhibition of D14 CFU-GM colony growth),[10],1 ng/mL
same,In vitro IC50 (3H-thymidine incorporation),[10],0.004 ng/mL
B1,Rel. Affinity,CD33 antigen (human) [11],0.81
same,In vitro IC50 (3H-thymidine incorporation),CD33 antigen (human) [12],0.3 ng/mL
B2,Ex vivo inhibition of colony formation,CD33 antigen (human) [13],96 % inhibition
same,In vitro IC50 (3H-thymidine incorporation),CD33 antigen (human) [13],0.098 ng/mL
same,Rel. Affinity,CD33 antigen (human) [11],0.75
B3,Rel. Affinity,CD33 antigen (human) [11],1.09
same,In vitro IC50 (3H-thymidine incorporation),CD33 antigen (human) [14],2.22 ng/mL
B4,Rel. Affinity,CD33 antigen (human) [11],0.5
same,Ex vivo inhibition of colony formation,CD33 antigen (human) [15],76 % inhibition
same,In vitro IC50 (3H-thymidine incorporation),CD33 antigen (human) [15],0.061 ng/mL
B5,Rel. Affinity,CD33 antigen (human) [11],0.56
same,Ex vivo inhibition of colony formation,CD33 antigen (human) [16],98 % inhibition
same,In vitro IC50 (3H-thymidine incorporation),CD33 antigen (human) [16],0.52 ng/mL
B6,Rel. Affinity,CD33 antigen (human) [11],0.65
same,Ex vivo inhibition of colony formation,CD33 antigen (human) [17],95 % inhibition
same,In vitro IC50 (3H-thymidine incorporation),CD33 antigen (human) [17],0.23 ng/mL
B7,Ex vivo inhibition of colony formation,CD33 antigen (human) [18],63 % inhibition
same,In vitro IC50 (3H-thymidine incorporation),CD33 antigen (human) [18],4.8 ng/mL
same,Rel. Affinity,CD33 antigen (human) [11],0.99
B8,In vitro IC50 (3H-thymidine incorporation),CD33 antigen (human) [19],0.69 ng/mL
same,Rel. Affinity,CD33 antigen (human) [11],1.19
B9,Rel. Affinity,CD33 antigen (human) [11],0.78
same,In vitro IC50 (3H-thymidine incorporation),CD33 antigen (human) [20],0.001 ng/mL
B10,Ex vivo inhibition of colony formation,CD33 antigen (human) [21],99 % inhibition
same,In vitro IC50 (3H-thymidine incorporation),CD33 antigen (human) [21],0.012 ng/mL
same,Rel. Affinity,CD33 antigen (human) [11],0.5
B11,Rel. Affinity,[22],0.88
same,In vitro IC50 (3H-thymidine incorporation),[23],5.6 ng/mL
